B1: CL-513691 (antibody, V domains shown)
VH: QVQLVESGGDVVQTGRSLRLSCAASGFTFSNYGMHWVRQAPDKGLEWVAIIWYDGSNKFYADSVKGRFTISRDNSKNTLYLHIHSLRAEDTAVYYCARDDRGDSAGPYFVYWGQGTLVTVSS
VL: EIVMTQSPATLSVSPGERATLSCRASQSVSDNLAWYQQRPGQAPRLLIYGASIRATGIPARFGGSGSGTEFTLTISILQSADFAVYYCQQHDSWPWTFGQGTKVEIK
B2: CL-513701 (antibody, V domains shown)
VH: QVQLVESGGGVVQTGRSLRLSCTASGFIFSNYGMYWVRQAPGKGLEWVALIWYDGSNKYYVDSVKGRFTISRDNSKNTLYLQMNSLRAEDTAVYYCARAGKYSGSGSYLDSWGQGTLVTVSS
VL: DIQMTQSPSSVSASVGDRVTITCRASQGISSWLAWYQQKPGKAPKLLIYTASSLQSGVPSRFSGSGSGTDFTLTISSLQPDDFATYFCQQYSRYWTFGQGTKVEIK
B3: CL-513780 (antibody, V domains shown)
VH: QVQLVESGGGVVQPGRSLRLSCTASGFIFSNYGMYWVRQAPGKGLDWVALIWYDGSNKYYVGSVKGRFTISRDNSKNTLYLQMNSLRAEDTAVYYCARAGKYSGSGSYLDSWGQGTLVTVSS
VL: DIQMTPSPSILSASVGDRVTITCRASQNISSWLAWYQQKPGKAPKLLIYKASSLESGVPSRFSGSGSGTEFTLTISSLQPDDFATYFCQQYYSYWTFGQGTKVEIK
B4: CL-513808 (antibody, V domains shown)
VH: QVQLVESGGGVVQPGRSLRLSCAASGFTFSNYGMHWVRQAPGKGLEWVAIIWYDGSNKFYADSVKGRFTISRDNSKNTLYLQMNSLRAEDTAVYYCARDDRGHSYGPYFDFWGQGTLVTVSS
VL: EIVMTQSPATLSVSPGERATLSCRASQSVSSNLAWYQQKPGQAPRLLIYGASIRATGIPARFSGSGSGTEFTLTISILQSEDFAVYYCQQCNNWPWTFGQGTKVEIK
B5: CL-513809 (antibody, V domains shown)
VH: QVQLVESGGGVVQPGRSLRLSCAASGFIFSNYGMYWVRQTPDKGLEWVALIWYDGNNKFYSDSVKGRFTVSRDNSKNTLYLQMNSLRDEDTALYYCARAGYFYGSGSSLDKWGQGTLVTVSS
VL: DIQMTQSPSTLSASVGDRVSITCRASQSISIWLAWYQQKPGKAPKLLIYKASSLESGVPSRFSGSGSGTEFTLTISSLQPDDFATYYCQQYNSYWTFGQGTKVEIK
B6: CL-514146 (antibody, V domains shown)
VH: QVQLVESGGGVVQPGRSLRLSCAVSGFTFSNSGMHWVRQAPGKGLEWVAIIWYDGNNKFYADSVKGRFTISRDNSKNTLYLQMNSLRAEDTSIYYCARAYPSGNYGDKYGMDVWGQGTTVTVSS
VL: DIQMTQSPSTLSASVGDRVTITCRASQSISSWLAWFQQKPGNAPKLLIYKASSLESGVPSRFSGSGSGTEFTLTINSLQPDDFATYYCQQYNSFWTFGQGTKVEIK
B7: CL-514174 (antibody, V domains shown)
VH: QVQLVESGGGVVQPGRSLRLSCVASGFTFSGSGMHWVRQSPGKGLEWVAIIWYDGSNKFYADSVQGRFTISRDNSKNTLYLQMNSLRVEDTGVYYCARAYLSGNYGDKYGMDVWGQGTTVTVSS
VL: DIQMTQSPSTLSASVGDRVTITCRASQSISSWLAWFQQKPGKAPKLLIYKASSLESGVPSRFSGSGSGTEFTLTINSLQPDDFATYFCQQYNYYWTFGQGTKVEIK
B8: CL-514716 (antibody, V domains shown)
VH: QIQLVESGGGVVQPGRSLRLSCAASGFTFSTYGMHWVRQAPGKGLEWVAVIWYDGSNKYYADSVQGRFTISRDNSKNTLYLQMNSLRAEDTAIYYCTTVGPIPFDYWGQGTLVTVSS
VL: DIVMTQTPLSSPVILGQPASISCRSSQSLVHSSGNTYLSWLQQRPGQPPRLLIYKTFKRLSGVPDRFSGSGAGTDFTLKISRVEAEDVGVYYCLQSTQFPLTFGGGTKVEIK
B9: CL-515284 (antibody, V domains shown)
VH: QVQLVGSGGGVVQSGRSLRLSCAASGFTFSNFGMHWVRQTPDKGLEWLAIIWYDGSHKFYVDSVKGRFTISRDNSMNTLFLQMNSLRAEDTGVYYCVRSWNYADSKYGMDVWGQGTTVTVSS
VL: DIQMTQSPSTLSASVGDRVTITCRASQSISSWLAWYQQKPGKAPNLLIYKASSLESGVPSRFSGSGSGTEFTLTISSLQPDDFATYYCQQYYNYWTFGQGTKVEIK
B10: CL-515341 (antibody, V domains shown)
VH: QVYLVESGGGVVQPGKSLRLSCAASGFTFSNYGMHWVRQAPGKGLEWVAIIWHDGSNKFYSDSVRGRFTISRDNSQNTLYLQMNSLSAEDTALYFCAKDIGYSNTWDYFDYWGQGTLVTVSS
VL: EIVLTQSPATLSLSPGERATLSCRASQSVNSFLAWYQQKPGQAPRLLIYDASNRATDIPDRFSGSGSGTDFTLTIRSLEPEDFAVYFCQQRSKWFTFGGGTTVEMK
B11: CL-531237 (antibody, V domains shown)
VH: QVQLVESGGGVVQPGTSLRLSCVASGFTFSNFGIHWFRQAPGKGLEWVSLIWYDGKNKFYAESVTGRFTISRDNSKNTVYLQMSSLRAEDTAVYYCARSYYYDSGNYFDYWGQGTLVTVSS
VL: DIQMTQSPSSVSASVGDRITITCRASQGISSRLAWFQQKPGKAPNFLIYGTSSLQSGVPSRFSGSGSGTDFTLTISSLQPEDSATYYCQQANSYPWTFGQGTKVEIK
B12: CL-531271 (antibody, V domains shown)
VH: QVQLVESGGGEVQPGRSLRLSCAASGFTFSNYGMHWVRQAPGKGLEWVALIWYDGNNKFYADSVNGRFTISRDNSNNTLYLQMNSLRAEDTGVYYCARSFYYVSGNFFDYWGQGTLVTVSS
VL: DIPMTQSPSSVSASVGDRVTITCRASQGISTWLAWYQQKPGKAPKFLIYAASSLQSGVPSRFSGSGSGTDFTLTIYSLQPEDFATYYCQQGNSFPWTFGQGTKVEIK
B13: CL-531286 (antibody, V domains shown)
VH: QVQLVESGGGLVQPGRSLRLSCAASGFTFSSSGMHWVRQAPGKGLEWVAVIWYDGSNKFYADSVKGRFTISRDNSKNTLYLQMNSLRAEDTAVYYCARSGYDILTGYFNFFDPWGQGTLVTVSS
VL: EIVLTQSPGTLSLSPGERATLSCRASQSVSSSHLAWYQQKPGQAPRLLIYGASSRATGIPDRFSGSGSGTDFTLTISRLEPEDFAVYYCHQYVSSFTFGPGTKVDFK
B14: CL-531325 (antibody, V domains shown)
VH: QVHLVESGGGVVQPGKSLRLSCAASGFTFSNFGMHWVRQAPGKGLEWVALIWYDGSHKFYADSVQGRFTISRDNSKNTLFLQMNSLRAEDTAIYYCAKVISYGSVNYYNNYKYTMDVWGQGTTVTVSS
VL: not shown
B15: CL-531383 (antibody, V domains shown)
VH: QVQLVESGGGVVQPGRSLRLSCAASGFTFSSFGMHWVRQTPVKGLEWVALIWYDGSHKFYADSVRGRFIISRDNSKNTLFLQMNSLRAEDTAIYYCAKVINYGSGNYYNNYKYTMDVWGQGTTVTVSS
VL: DIQMTQSPSTLSASVGDRVTITCRASQSISSWLAWYQQKPGKAPKVLIYKASSLESGVPSRFSGSGSGTEFTLTISSLQPDDFATYYCQQYNTYWTFGQGTKVEIK
B16: CL-531912 (antibody, V domains shown)
VH: LVQLVESGGGVVQPGRSLRLSCAASGFTFSSSGMHWVRQAPGKGLEWVAIIWYDGSNKFYADSVKGRFTISRDNSKNTLYLQMNSLRAEDTAVYYCARAYVSGSHGDKYGMDVWGQGTTVTVSS
VL: DIQMTQSPSTLSASVGDRVTITCRASQSISSWLAWFQQKPGKAPKLLIYKASSLESGVPSRFSGSGSGTEFTLTINSLQPDDFATYFCQQYNNYWTFGQGTKVEIK

Molecular target: recombinant full-length PfCSP (Plasmodium falciparum circumsporozoite protein, strain NF54) (Plasmodium falciparum NF54, UniProt P19597)
Sequence (P19597 20-375): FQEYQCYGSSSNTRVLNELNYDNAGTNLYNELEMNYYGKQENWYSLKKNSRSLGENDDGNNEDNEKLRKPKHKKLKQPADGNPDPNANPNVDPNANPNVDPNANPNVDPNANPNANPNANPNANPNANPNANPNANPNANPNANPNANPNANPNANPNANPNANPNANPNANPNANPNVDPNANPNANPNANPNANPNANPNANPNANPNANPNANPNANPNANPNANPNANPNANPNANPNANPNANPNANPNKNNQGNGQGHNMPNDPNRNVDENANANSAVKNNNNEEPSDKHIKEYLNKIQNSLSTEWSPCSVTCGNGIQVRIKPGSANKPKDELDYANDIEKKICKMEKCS

| Binder | binding result |
| --- | --- |
| B1 | binds |
| B2 | binds |
| B3 | binds |
| B4 | binds |
| B5 | binds |
| B6 | binds |
| B7 | binds |
| B8 | binds |
| B9 | binds |
| B10 | binds |
| B11 | binds |
| B12 | binds |
| B13 | binds |
| B14 | binds |
| B15 | binds |
| B16 | binds |
